In patent US20120294802A1 (ALDERBIO, published 2012):
Positions count from the first letter of the chain named.

T1: human Calcitonin Gene Related Peptide alpha (Homo sapiens, C-terminal amide (-NH2 printed after the last residue F; the filing words it as 'the N-terminal phenylalanine is amidated'); 125I radiolabeled in the receptor binding assay of Example 6)
T1 construct: 37-residue peptide bought from American Peptides and Bachem; Coated directly on plates in the ELISA of the recombinant antibodies; also called CGRPα; CGRP-alpha
T1 peptide: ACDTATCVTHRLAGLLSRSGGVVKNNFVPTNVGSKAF

B1: Antibody Ab1 (antibody, human IgG1, kappa, N297A, V domains shown)
VH: QSLEESGGRLVTPGTPLTLTCTVSGLDLSSYYMQWVRQAPGKGLEWIGVIGINDNTYYASWAKGRFTISRASSTTVDLKMTSLTTEDTATYFCARGDIWGPGTLVTVSS
VL: QVLTQTASPVSAAVGSTVTINCQASQSVYDNNYLAWYQQKPGQPPKQLIYSTSTLASGVSSRFKGSGSGTQFTLTISDLECADAATYYCLGSYDCSSGDCFVFGGGTEVVVKR
notes: Chimeric anti-CGRP antibody (rabbit variable regions, human gamma-1 and kappa constant regions), full length
B2: Antibody Ab7 (antibody, human IgG1, kappa, N297A, V domains shown)
VH: QEQLKESGGRLVTPGTSLTLTCTVSGIDLSNHYMQWVRQAPGKGLEWIGVVGINGRTYYASWAKGRFTISRTSSTTVDLKMTRLTTEDTATYFCARGDIWGPGTLVTVSS
VL: B1 VL with D30N, N31Y, L79V, E80Q, A82D, S97T
notes: Chimeric anti-CGRP antibody, full length
B3: Antibody Ab4 (antibody, human IgG1, kappa, N297A, V domains shown)
VH: B1 VH with T22S, L26I, S30G, Q34N, D54G, N55A, R70K, A71T
VL: QVLTQTPSPVSAAVGSTVTINCQASQSVYHNTYLAWYQQKPGQPPKQLIYDASTLASGVPSRFSGSGSGTQFTLTISGVQCNDAAAYYCLGSYDCTNGDCFVFGGGTEVVVKR
B4: Antibody Ab11 (antibody, human IgG1, kappa, N297A, V domains shown)
VH: QSLEESGGRLVTPGGSLTLTCTVSGIDVTNYYMQWVRQAPGKGLEWIGVIGVNGKRYYASWAKGRFTISKTSSTTVDLKMTSLTTEDTATYFCARGDIWGPGTLVTVSS
VL: B1 VL with A12P, Q23R, D30Y, L79V, E80Q, A82D, S97N
notes: as for B2
B5: Antibody Ab9 (antibody, human IgG1, kappa, N297A, V domains shown)
VH: QSLEESGGRLVTPGTPLTLTCTVSGIGLSSYYMQWVRQSPGRGLEWIGVIGSDGKTYYATWAKGRFTISKTSSTTVDLRMASLTTEDTATYFCTRGDIWGPGTLVTVSS
VL: B1 VL with A7P, S27N, D30N, K64R, L79V, E80Q, A82D, S97R
notes: as for B2
B6: Antibody Ab2 (antibody, human IgG1, kappa, N297A)
heavy: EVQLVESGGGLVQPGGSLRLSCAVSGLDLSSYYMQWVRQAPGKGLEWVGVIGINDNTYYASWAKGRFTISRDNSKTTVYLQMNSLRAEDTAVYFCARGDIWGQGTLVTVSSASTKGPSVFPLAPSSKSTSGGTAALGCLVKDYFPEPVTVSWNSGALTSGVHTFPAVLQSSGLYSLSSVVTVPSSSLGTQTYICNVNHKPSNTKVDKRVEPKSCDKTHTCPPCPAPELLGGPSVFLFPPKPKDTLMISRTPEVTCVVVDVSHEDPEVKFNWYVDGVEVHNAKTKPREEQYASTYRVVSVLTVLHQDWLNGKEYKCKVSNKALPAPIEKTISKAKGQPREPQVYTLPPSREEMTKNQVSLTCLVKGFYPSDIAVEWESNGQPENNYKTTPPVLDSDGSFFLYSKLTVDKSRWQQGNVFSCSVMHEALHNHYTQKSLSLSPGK
light: QVLTQSPSSLSASVGDRVTINCQASQSVYDNNYLAWYQQKPGKVPKQLIYSTSTLASGVPSRFSGSGSGTDFTLTISSLQPEDVATYYCLGSYDCSSGDCFVFGGGTKVEIKRTVAAPSVFIFPPSDEQLKSGTASVVCLLNNFYPREAKVQWKVDNALQSGNSQESVTEQDSKDSTYSLSSTLTLSKADYEKHKVYACEVTHQGLSSPVTKSFNRGEC
notes: Humanized anti-CGRP antibody, full length
B7: Antibody Ab10 (antibody, human IgG1, kappa, N297A)
heavy: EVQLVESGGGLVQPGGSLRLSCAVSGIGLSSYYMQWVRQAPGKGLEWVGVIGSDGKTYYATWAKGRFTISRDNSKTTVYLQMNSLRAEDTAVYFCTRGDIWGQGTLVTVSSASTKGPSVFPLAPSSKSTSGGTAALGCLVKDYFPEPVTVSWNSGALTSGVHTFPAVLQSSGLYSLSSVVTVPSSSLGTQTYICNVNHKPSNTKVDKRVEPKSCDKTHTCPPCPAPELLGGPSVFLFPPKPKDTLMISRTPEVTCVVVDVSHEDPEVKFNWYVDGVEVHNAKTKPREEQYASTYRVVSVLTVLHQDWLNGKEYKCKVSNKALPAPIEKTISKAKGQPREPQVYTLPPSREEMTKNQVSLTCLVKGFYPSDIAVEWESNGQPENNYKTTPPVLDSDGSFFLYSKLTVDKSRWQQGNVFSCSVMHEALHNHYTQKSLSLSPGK
light: B6 light with S27N, D30N, S97R
notes: as for B6
B8: Antibody Ab12 (antibody, human IgG1, kappa, N297A, V domains shown)
VH: EVQLVESGGGLVQPGGSLRLSCAVSGIDVTNYYMQWVRQAPGKGLEWVGVIGVNGKRYYASWAKGRFTISRDNSKTTVYLQMNSLRAEDTAVYFCARGDIWGQGTLVTVSS
VL: QVLTQSPSSLSASVGDRVTINCRASQSVYYNNYLAWYQQKPGKVPKQLIYSTSTLASGVPSRFSGSGSGTDFTLTISSLQPEDVATYYCLGSYDCSNGDCFVFGGGTKVEIKR
notes: as for B6
B9: Antibody Ab8 (antibody, human IgG1, kappa, N297A, V domains shown)
VH: B8 VH with V29L, T30S, Y32H, I51V, V53I, K56R, R57T
VL: B8 VL with R23Q, Y30N, N31Y, N97T
notes: as for B6
B10: Antibody Ab3 (antibody, human IgG1, kappa, N297A)
heavy: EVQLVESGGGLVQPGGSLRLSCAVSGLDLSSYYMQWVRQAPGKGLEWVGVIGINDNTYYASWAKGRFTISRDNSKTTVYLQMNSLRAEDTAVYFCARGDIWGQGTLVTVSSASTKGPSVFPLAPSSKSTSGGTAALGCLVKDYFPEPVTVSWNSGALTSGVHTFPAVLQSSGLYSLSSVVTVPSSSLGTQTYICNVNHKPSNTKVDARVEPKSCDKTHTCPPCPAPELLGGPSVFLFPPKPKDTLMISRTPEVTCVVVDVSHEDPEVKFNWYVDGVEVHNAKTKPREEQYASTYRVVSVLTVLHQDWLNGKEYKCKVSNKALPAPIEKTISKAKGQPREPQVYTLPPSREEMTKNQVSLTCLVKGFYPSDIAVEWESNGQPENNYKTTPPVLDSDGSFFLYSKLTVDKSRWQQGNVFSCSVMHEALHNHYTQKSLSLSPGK
light: B6 light
B11: Antibody Ab5 (antibody, human IgG1, kappa, N297A)
heavy: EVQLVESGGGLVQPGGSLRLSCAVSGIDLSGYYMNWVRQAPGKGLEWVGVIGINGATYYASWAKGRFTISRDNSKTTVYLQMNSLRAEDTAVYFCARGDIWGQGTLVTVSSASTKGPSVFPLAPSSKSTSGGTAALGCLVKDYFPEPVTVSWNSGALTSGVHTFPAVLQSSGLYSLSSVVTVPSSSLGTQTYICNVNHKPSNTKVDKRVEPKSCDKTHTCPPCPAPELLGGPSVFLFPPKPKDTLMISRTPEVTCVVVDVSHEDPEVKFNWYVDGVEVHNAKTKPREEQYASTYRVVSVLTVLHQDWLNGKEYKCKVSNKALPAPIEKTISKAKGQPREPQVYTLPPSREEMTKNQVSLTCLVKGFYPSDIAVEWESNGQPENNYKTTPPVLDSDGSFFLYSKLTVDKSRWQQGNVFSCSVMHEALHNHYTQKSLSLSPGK
light: B6 light with D30H, N32T, S51D, T52A, S96T, S97N
B12: Antibody Ab6 (antibody, human IgG1, kappa, N297A)
heavy: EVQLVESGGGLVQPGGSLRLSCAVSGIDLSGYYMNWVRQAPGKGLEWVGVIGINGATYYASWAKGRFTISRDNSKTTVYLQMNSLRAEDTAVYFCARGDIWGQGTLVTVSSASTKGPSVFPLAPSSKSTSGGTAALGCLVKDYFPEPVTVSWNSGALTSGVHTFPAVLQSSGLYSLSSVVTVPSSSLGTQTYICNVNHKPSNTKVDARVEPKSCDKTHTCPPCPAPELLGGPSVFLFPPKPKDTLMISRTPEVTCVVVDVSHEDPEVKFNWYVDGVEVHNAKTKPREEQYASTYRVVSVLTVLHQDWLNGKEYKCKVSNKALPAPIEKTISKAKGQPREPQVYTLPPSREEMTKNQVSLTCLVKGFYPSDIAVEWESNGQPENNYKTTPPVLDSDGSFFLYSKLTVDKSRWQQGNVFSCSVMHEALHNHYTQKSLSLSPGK
light: B6 light with D30H, N32T, S51D, T52A, S96T, S97N
notes: as for B6
B13: Antibody Ab14 (antibody, human IgG1, kappa, N297A)
heavy: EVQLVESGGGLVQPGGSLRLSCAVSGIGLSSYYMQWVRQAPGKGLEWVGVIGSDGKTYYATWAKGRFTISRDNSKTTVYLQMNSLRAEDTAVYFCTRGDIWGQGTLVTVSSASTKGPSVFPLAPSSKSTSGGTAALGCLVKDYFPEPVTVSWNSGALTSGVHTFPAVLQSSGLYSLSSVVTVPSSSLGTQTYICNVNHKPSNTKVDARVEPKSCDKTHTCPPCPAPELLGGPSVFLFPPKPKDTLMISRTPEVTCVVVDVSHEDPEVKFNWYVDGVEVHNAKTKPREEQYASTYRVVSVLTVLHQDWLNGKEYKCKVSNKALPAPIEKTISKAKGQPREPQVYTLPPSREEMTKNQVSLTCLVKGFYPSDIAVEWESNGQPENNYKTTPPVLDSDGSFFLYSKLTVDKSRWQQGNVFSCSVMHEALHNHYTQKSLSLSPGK
light: B6 light with S27N, D30N, S97R
notes: as for B6

Target: T1, human Calcitonin Gene Related Peptide …
Test: ELISA, plates coated with CGRPα, anti-human IgG Fc-HRP detection
Method: To characterize recombinant expressed antibodies for their ability to bind to human-CGRPα, antibody-containing solutions were tested by ELISA. All incubations were done at room temperature. Briefly, Immulon IV plagtes (Thermo Scientific), were coated with a CGRPα containing solution (1 ut/mL in PBS) for 2 hours. CGRPα-coated plates were then washed three times in wash buffer (PBS, 0.05% Tween-20). The plates were then blocked using a blocking solution (PBS, 0.5% fish skin gelatin, 0.05% Tween-20) for approximately one hour. The blocking solution was then removed and the plates were then incubated with a dilution series of the antibody being tested for approximately one hour. At the end of this incubation, the plate was washed three times with wash buffer and further incubated with a secondary antibody containing solution (Peroxidase conjugated affinipure F(ab′)2 fragment goat anti-human IgG, Fc fragment specific (Jackson Immunoresearch) for approximately 45 minutes and washed three times. At that point a substrate solution (TMB peroxidase substrate, BioFx) and incubated for 3 to 5 minutes in the dark. The reaction was stopped by addition of a HCl containing solution (0.5M) and the plate was read at 450 nm in a plate-reader.

| binding result | Binder |
| --- | --- |
| binds | B1 |
| binds | B2 |
| binds | B3 |
| binds | B4 |
| binds | B5 |
| binds | B6 |
| binds | B7 |
| binds | B8 |
| binds | B9 |
| binds | B10 |
| binds | B11 |
| binds | B12 |
| binds | B13 |
